For experiment [1], the target named is T1, human amylin 3(a) receptor (human calcitonin receptor co-expressed with RAMP-3) on BHK570/CRE-luc cells (human, UniProt P30988 25-474; O60896 24-148).
T1 sequence (looked up) 1: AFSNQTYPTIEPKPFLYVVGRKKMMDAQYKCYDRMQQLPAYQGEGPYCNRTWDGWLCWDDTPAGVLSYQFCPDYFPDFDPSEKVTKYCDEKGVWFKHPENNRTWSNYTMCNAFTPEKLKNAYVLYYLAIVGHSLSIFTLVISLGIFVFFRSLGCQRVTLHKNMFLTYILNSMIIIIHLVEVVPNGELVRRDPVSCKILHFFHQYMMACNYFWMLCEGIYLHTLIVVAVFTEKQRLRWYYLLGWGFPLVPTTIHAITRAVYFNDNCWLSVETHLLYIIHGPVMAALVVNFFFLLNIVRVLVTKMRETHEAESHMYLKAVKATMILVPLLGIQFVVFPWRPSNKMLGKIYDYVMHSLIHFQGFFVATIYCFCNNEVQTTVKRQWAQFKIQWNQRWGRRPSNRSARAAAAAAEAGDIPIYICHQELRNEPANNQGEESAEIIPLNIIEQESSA
T1 sequence (looked up) 2: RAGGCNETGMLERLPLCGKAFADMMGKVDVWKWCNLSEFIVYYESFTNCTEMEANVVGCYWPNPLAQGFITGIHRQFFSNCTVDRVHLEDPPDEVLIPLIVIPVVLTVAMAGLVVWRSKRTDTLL
The experiment in a line: cell-based or functional assay.

Experiment [2] has as its target T2, human calcitonin receptor on BHK570/CRE-luc cells (human, UniProt P30988 25-474).
T2 sequence (looked up): T1 sequence (looked up) 1
The experiment in a line: cell-based or functional assay.

Numbered stars: 1 amine (or outer) side, 2 acyl side, 3 side chain; on linkers, the order of the positions; unused ones are H or OH. * marks the point of attachment. C20 diacid = O=C(O)CCCCCCCCCCCCCCCCCCC(=O)*; C18 diacid = O=C(O)CCCCCCCCCCCCCCCCC(=O)*; γGlu = O=C(O)[C@H](CCC(=O)[*:2])N[*:1]

B1: [N-terminal(C20 diacid-gGlu), des1, 9S, 21S, 23Y, 30S, 31G, 33Y]mimylin (peptide)
peptide: {C20 diacid-γGlu}-ASELSTASLGRLSAELHELSTYPRTETGSGSY-NH2
SMILES: CC(C)C[C@H](NC(=O)[C@H](CO)NC(=O)[C@H](C)NC(=O)[C@@H](NC(=O)[C@H](CO)NC(=O)[C@H](CC(C)C)NC(=O)[C@H](CCC(=O)O)NC(=O)[C@H](CO)NC(=O)[C@H](C)NC(=O)CC[C@H](NC(=O)CCCCCCCCCCCCCCCCCCC(=O)O)C(=O)O)[C@@H](C)O)C(=O)NCC(=O)N[C@@H](CCCNC(=N)N)C(=O)N[C@@H](CC(C)C)C(=O)N[C@@H](CO)C(=O)N[C@@H](C)C(=O)N[C@@H](CCC(=O)O)C(=O)N[C@@H](CC(C)C)C(=O)N[C@@H](Cc1c[nH]cn1)C(=O)N[C@@H](CCC(=O)O)C(=O)N[C@@H](CC(C)C)C(=O)N[C@@H](CO)C(=O)N[C@H](C(=O)N[C@@H](Cc1ccc(O)cc1)C(=O)N1CCC[C@H]1C(=O)N[C@@H](CCCNC(=N)N)C(=O)N[C@H](C(=O)N[C@@H](CCC(=O)O)C(=O)N[C@H](C(=O)NCC(=O)N[C@@H](CO)C(=O)NCC(=O)N[C@@H](CO)C(=O)N[C@@H](Cc1ccc(O)cc1)C(N)=O)[C@@H](C)O)[C@@H](C)O)[C@@H](C)O
Take B1: the “hAmylin-R funct. EC50 (pM), tested with HSA” value (from here on “hAmylin-R funct. EC50 (pM)”) in experiment [1] was 143 pM. Besides, the “hCTR funct. EC50 (pM), tested with HSA” value in experiment [2] was found to be 108 pM.

B2: [N-terminal(C20 diacid-gGlu), des1, 9T, 21S, 23Y, 30S, 31G, 33Y]mimylin (peptide)
peptide: {C20 diacid-γGlu}-ASELSTATLGRLSAELHELSTYPRTETGSGSY-NH2
SMILES: CC(C)C[C@H](NC(=O)[C@H](CCCNC(=N)N)NC(=O)CNC(=O)[C@H](CC(C)C)NC(=O)[C@@H](NC(=O)[C@H](C)NC(=O)[C@@H](NC(=O)[C@H](CO)NC(=O)[C@H](CC(C)C)NC(=O)[C@H](CCC(=O)O)NC(=O)[C@H](CO)NC(=O)[C@H](C)NC(=O)CC[C@H](NC(=O)CCCCCCCCCCCCCCCCCCC(=O)O)C(=O)O)[C@@H](C)O)[C@@H](C)O)C(=O)N[C@@H](CO)C(=O)N[C@@H](C)C(=O)N[C@@H](CCC(=O)O)C(=O)N[C@@H](CC(C)C)C(=O)N[C@@H](Cc1c[nH]cn1)C(=O)N[C@@H](CCC(=O)O)C(=O)N[C@@H](CC(C)C)C(=O)N[C@@H](CO)C(=O)N[C@H](C(=O)N[C@@H](Cc1ccc(O)cc1)C(=O)N1CCC[C@H]1C(=O)N[C@@H](CCCNC(=N)N)C(=O)N[C@H](C(=O)N[C@@H](CCC(=O)O)C(=O)N[C@H](C(=O)NCC(=O)N[C@@H](CO)C(=O)NCC(=O)N[C@@H](CO)C(=O)N[C@@H](Cc1ccc(O)cc1)C(N)=O)[C@@H](C)O)[C@@H](C)O)[C@@H](C)O
B2: in experiment [1], the “hAmylin-R funct. EC50 (pM)” value was 92 pM. Besides, in experiment [2], the “hCTR funct. EC50 (pM), tested with HSA” value stood at 40 pM.

B3: [N-terminal(C18 diacid-gGlu), des1, 5V, 9V, 10V, 20V, 30S, 31G]mimylin (peptide)
peptide: {C18 diacid-γGlu}-ASEVSTAVVGRLSAELHEVATLPRTETGSGSP-NH2
SMILES: CC(C)C[C@H](NC(=O)[C@H](CCCNC(=N)N)NC(=O)CNC(=O)[C@@H](NC(=O)[C@@H](NC(=O)[C@H](C)NC(=O)[C@@H](NC(=O)[C@H](CO)NC(=O)[C@@H](NC(=O)[C@H](CCC(=O)O)NC(=O)[C@H](CO)NC(=O)[C@H](C)NC(=O)CC[C@H](NC(=O)CCCCCCCCCCCCCCCCC(=O)O)C(=O)O)C(C)C)[C@@H](C)O)C(C)C)C(C)C)C(=O)N[C@@H](CO)C(=O)N[C@@H](C)C(=O)N[C@@H](CCC(=O)O)C(=O)N[C@@H](CC(C)C)C(=O)N[C@@H](Cc1c[nH]cn1)C(=O)N[C@@H](CCC(=O)O)C(=O)N[C@H](C(=O)N[C@@H](C)C(=O)N[C@H](C(=O)N[C@@H](CC(C)C)C(=O)N1CCC[C@H]1C(=O)N[C@@H](CCCNC(=N)N)C(=O)N[C@H](C(=O)N[C@@H](CCC(=O)O)C(=O)N[C@H](C(=O)NCC(=O)N[C@@H](CO)C(=O)NCC(=O)N[C@@H](CO)C(=O)N1CCC[C@H]1C(N)=O)[C@@H](C)O)[C@@H](C)O)[C@@H](C)O)C(C)C
With B3, the “hAmylin-R funct. EC50 (pM)” value in experiment [1] is 106 pM. In experiment [2], the “hCTR funct. EC50 (pM), tested with HSA” value came out at 28 pM.

B4: [N-terminal(C20 diacid-gGlu), des1, 12K, 23Y, 25K, 30S, 31G, 33Y]mimylin (peptide)
peptide: {C20 diacid-γGlu}-ASELSTAALGKLSAELHELATYPKTETGSGSY-NH2
SMILES: CC(C)C[C@H](NC(=O)[C@H](C)NC(=O)[C@H](C)NC(=O)[C@@H](NC(=O)[C@H](CO)NC(=O)[C@H](CC(C)C)NC(=O)[C@H](CCC(=O)O)NC(=O)[C@H](CO)NC(=O)[C@H](C)NC(=O)CC[C@H](NC(=O)CCCCCCCCCCCCCCCCCCC(=O)O)C(=O)O)[C@@H](C)O)C(=O)NCC(=O)N[C@@H](CCCCN)C(=O)N[C@@H](CC(C)C)C(=O)N[C@@H](CO)C(=O)N[C@@H](C)C(=O)N[C@@H](CCC(=O)O)C(=O)N[C@@H](CC(C)C)C(=O)N[C@@H](Cc1c[nH]cn1)C(=O)N[C@@H](CCC(=O)O)C(=O)N[C@@H](CC(C)C)C(=O)N[C@@H](C)C(=O)N[C@H](C(=O)N[C@@H](Cc1ccc(O)cc1)C(=O)N1CCC[C@H]1C(=O)N[C@@H](CCCCN)C(=O)N[C@H](C(=O)N[C@@H](CCC(=O)O)C(=O)N[C@H](C(=O)NCC(=O)N[C@@H](CO)C(=O)NCC(=O)N[C@@H](CO)C(=O)N[C@@H](Cc1ccc(O)cc1)C(N)=O)[C@@H](C)O)[C@@H](C)O)[C@@H](C)O
Regarding B4, the “hAmylin-R funct. EC50 (pM)” value in experiment [1] stood at 93 pM. The “hCTR funct. EC50 (pM), tested with HSA” value in experiment [2] came out at 73 pM.

B5: [N-terminal(C20 diacid-gGlu), 4G, 15Q, 21Q, 23Y, 30S, 31G, 32T, 33Y]mimylin (peptide)
peptide: {C20 diacid-γGlu}-EASGLSTAALGRLSQELHELQTYPRTETGSGTY-NH2
SMILES: CC(C)C[C@H](NC(=O)CNC(=O)[C@H](CO)NC(=O)[C@H](C)NC(=O)[C@H](CCC(=O)O)NC(=O)CC[C@H](NC(=O)CCCCCCCCCCCCCCCCCCC(=O)O)C(=O)O)C(=O)N[C@@H](CO)C(=O)N[C@H](C(=O)N[C@@H](C)C(=O)N[C@@H](C)C(=O)N[C@@H](CC(C)C)C(=O)NCC(=O)N[C@@H](CCCNC(=N)N)C(=O)N[C@@H](CC(C)C)C(=O)N[C@@H](CO)C(=O)N[C@@H](CCC(N)=O)C(=O)N[C@@H](CCC(=O)O)C(=O)N[C@@H](CC(C)C)C(=O)N[C@@H](Cc1c[nH]cn1)C(=O)N[C@@H](CCC(=O)O)C(=O)N[C@@H](CC(C)C)C(=O)N[C@@H](CCC(N)=O)C(=O)N[C@H](C(=O)N[C@@H](Cc1ccc(O)cc1)C(=O)N1CCC[C@H]1C(=O)N[C@@H](CCCNC(=N)N)C(=O)N[C@H](C(=O)N[C@@H](CCC(=O)O)C(=O)N[C@H](C(=O)NCC(=O)N[C@@H](CO)C(=O)NCC(=O)N[C@H](C(=O)N[C@@H](Cc1ccc(O)cc1)C(N)=O)[C@@H](C)O)[C@@H](C)O)[C@@H](C)O)[C@@H](C)O)[C@@H](C)O
As to B5, in experiment [1], the “hAmylin-R funct. EC50 (pM)” value was 128 pM. Further, the “hCTR funct. EC50 (pM), tested with HSA” value in experiment [2] was 92 pM.

Values taken from patent US20160272683A1 (Novo Nordisk, published 2016).
